The text below walks through data of patent publication US20200262888A1 (HANMI PHARM, published 2020).

Residue numbers refer to the chain shown, from its start. Non-standard residues stand in square brackets, D forms with d. No end group written: not given here. *: point of attachment. Acetyl(2-(4-imidazolyl)) = O=C(Cc1c[nH]cn1)*

Sequences and labels used below:
T1: human GLP-2 receptor (human, UniProt O95838 1-553)
T1 sequence (looked up): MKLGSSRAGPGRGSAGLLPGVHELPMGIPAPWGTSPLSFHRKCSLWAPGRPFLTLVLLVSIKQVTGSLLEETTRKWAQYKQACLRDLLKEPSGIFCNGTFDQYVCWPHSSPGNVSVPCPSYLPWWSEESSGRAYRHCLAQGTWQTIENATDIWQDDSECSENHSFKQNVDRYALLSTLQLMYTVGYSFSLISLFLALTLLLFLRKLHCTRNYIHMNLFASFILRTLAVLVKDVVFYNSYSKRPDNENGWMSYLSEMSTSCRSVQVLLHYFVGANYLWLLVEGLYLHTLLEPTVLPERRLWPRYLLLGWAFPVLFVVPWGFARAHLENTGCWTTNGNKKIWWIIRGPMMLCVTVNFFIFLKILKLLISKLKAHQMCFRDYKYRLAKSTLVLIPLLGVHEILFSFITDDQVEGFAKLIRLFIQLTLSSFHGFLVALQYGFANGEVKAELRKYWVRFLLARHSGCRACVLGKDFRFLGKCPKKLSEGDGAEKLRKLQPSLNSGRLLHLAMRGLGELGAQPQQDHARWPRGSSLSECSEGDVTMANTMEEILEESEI

B1: CA GLP-2 KC (peptide)
peptide: XGDGSFSDEMNTILDNLAARDFINWLIQTKITDC
modifications: position 1 is imidazoacetyldeshistidine (caH) instead of histidine
B2: CA GLP-2 KK (peptide)
peptide: B1 peptide with C34K
modifications: position 1 is imidazoacetyldeshistidine (caH) instead of histidine
B3: CA GLP-2 RC (peptide)
peptide: [Acetyl(2-(4-imidazolyl))]GDGSFSDEMNTILDNLAARDFINWLIQTRITDC
B4: CA GLP-2 RK (peptide)
peptide: [Acetyl(2-(4-imidazolyl))]GDGSFSDEMNTILDNLAARDFINWLIQTRITDK

The target of this test is T1, human GLP-2 receptor. As to the kind of experiment: cell-based or functional assay.
Turning to Teduglutide (Gattex, Shire) (peptide), the In vitro activity compared to human GLP-2 (%) (relative titer from EC50 of cAMP accumulation, CHO-K1 cells expressing human GLP-2 receptor) is 148%.
Consider B1, for which the “In vitro activity compared to human GLP-2 (%) (relative titer from EC50 of cAMP accumulation, CHO-K1 cells expressing human GLP-2 receptor)” value came to 149%.
The same measure for B2: 206%.
Consider B3, for which the “In vitro activity compared to human GLP-2 (%) (relative titer from EC50 of cAMP accumulation, CHO-K1 cells expressing human GLP-2 receptor)” value is 120%.
Then B4, with 333%.
